Reference: patent publication US20030219839A1 (published 2003)

Experiments:
[1] = biological target: T1, recombinant human platelet derived growth factor (PDGF-BB) (human, UniProt P01127 82-190); experiment: competition ELISA: antibody pre-incubated with 10 ng/ml PDGF-BB, then added to a plate coated with PDGF receptor beta/Fc; receptor-bound PDGF-BB detected by biotinylated anti-PDGF-BB antibody and streptavidin-alkaline phosphatase, OD405; blocked partner: PDGF receptor beta/Fc
T1 construct: also called human PDGF-BB; PDGF-BB cytokine
Procedure: The ability of the rabbit scFvs to compete with the PDGF-1 receptor for binding to the PDGF-BB cytokine was determined in a competition assay. Binding of the scFvs to their target epitope on the PDGF-BB cytokine prevents PDGF-BB binding to the PDGF receptor coated on the plates. High protein binding 96-well plates were coated with 10 ng/well of recombinant human PDGF receptor beta/Fc chimera (R&D Systems, MN) in PBS overnight at 4° C. The plates were blocked with 5% sucrose/1% BSA/PBS for 1 h at 37° C. Serial dilutions of purified anti-PDGF-BB antibody were incubated with 10 ng/ml of recombinant human PDGF-BB at room temperature for 30 minutes before being added to the blocked and washed plates. After 2 h at room temperature, the plates were washed with PBS/0.05% Tween followed by another 2-hour incubation with biotinylated anti-PDGF-BB antibody (R&D Systems, MN) at room temperature. Next, streptavidin-alkaline phosphatase (Pierce, Rockford, Ill.) was added to the plates and incubated for 30 minutes at room temperature. The plates were washed 3×with PBS/0.05% Tween and 3× with PBS. Sigma 104 substrate suspended in PNPP buffer was added after the final wash step and the signal at OD405 was determined. […] F3 was then selected for humanization.

rat PDGF BB = rat PDGF BB (rat, UniProt Q05028 74-182); experiment: solid phase ELISA: plate coated with the named form of PDGF, serial dilutions of mouse C1 Fab (axis in dilutions 1/x, no mass unit), OD
[2] = biological target: T1, recombinant human platelet derived …; experiment: BIAcore SPR, cytokine immobilised via primary amines, antibody as analyte
Procedure: BIAcore analysis of the original and humanized anti-PDGF clones was performed according to standard procedures. The cytokine was immobilized on the BIAchip by chemical linking via primary amines and the binding behavior of the antibodies was analyzed over 30 min.

T1 sequence (P01127 82-190): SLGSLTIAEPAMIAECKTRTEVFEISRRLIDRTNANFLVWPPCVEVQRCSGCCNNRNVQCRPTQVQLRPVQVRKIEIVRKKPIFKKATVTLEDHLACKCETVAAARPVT
Sequence of rat PDGF BB (Q05028 74-182): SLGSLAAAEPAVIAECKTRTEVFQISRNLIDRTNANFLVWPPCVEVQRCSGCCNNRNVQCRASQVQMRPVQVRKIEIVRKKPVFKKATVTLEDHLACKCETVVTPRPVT

B1: C1 mouse anti-PDGF Fab (Fab, V domains shown)
VH: QVLLEQSGSELVRPGASVKLSCKASGYTFTSTWMNWVKKRPDQGLEWIGRIDPYDSETHYNQKFKDKAILTVDKSSSTAYMQLSRLTSEDSAVYYCARGGHMITPAMDYWGQGTSVTVSS
VL: VQVLTQSPAIMSASPGEKVTITCTASSSVSYMHWFQQKPGTSPKLLIYSASNLASGVPARFSGSGSGTSYSLTISRMEAEDAATYYCQQRSSYPWTFGGGTKLEIKR
notes: Mouse light chain and heavy chain Fd cloned in phagemid pRL4; purified over a Ni column; detected by an HA tag; also called mouse C1; murine antibody C1
In the case of B1, the “IC50 (read off the curve)” value [1] is reported as ~0.4 µg/mL, the binding result (rat PDGF BB) is reported as “no binding” and the Ka [2] is reported as 2.31e+09 M⁻¹. For the same binder, the Kd [2] was 0.433 nM, the koff [2] was 4.62e-05 s⁻¹ and the kon [2] was 107000 M⁻¹ s⁻¹.
